Test results reported in patent US20250296996A1 (BROADWING BIO, published 2025).
Changes are numbered by the printed parent chain.

Experiments:
P66 (rabbit ANGPTL7-his) [1] = target: T1, P66 (rabbit ANGPTL7-his) (rabbit, UniProt G1T4P1 27-344); assay: BLI Octet HTX; IgG on AHC sensor; P66 at 200 nM; 1:1 fit
T1 construct: mature; also called rabbit ANGPTL7 protein
T1 sequence: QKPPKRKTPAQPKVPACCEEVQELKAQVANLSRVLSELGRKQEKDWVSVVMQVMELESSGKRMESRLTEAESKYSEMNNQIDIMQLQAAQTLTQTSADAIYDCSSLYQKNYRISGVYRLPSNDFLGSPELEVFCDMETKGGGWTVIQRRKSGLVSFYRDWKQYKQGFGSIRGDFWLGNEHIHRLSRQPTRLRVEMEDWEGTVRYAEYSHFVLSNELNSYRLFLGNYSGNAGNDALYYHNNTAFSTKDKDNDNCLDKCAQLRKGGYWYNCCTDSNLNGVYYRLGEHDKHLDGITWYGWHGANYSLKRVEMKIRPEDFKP
Method: (§1) Experiments were also conducted to determine the reactivity and dissociation constants (KA) of anti-ANGPTL7 antibodies with the rabbit ANGPTL7 protein. Binding experiments were performed on Octet HTX (ForteBio) in Rx PBS, pH 7.4, 0.1 mg/mi BSA, 0.05% Sodium Azide, and 0.02% Tween 20. Antibodies at a concentration of 50 nM were loaded on pre-hydrated AHC biosensors for 5 min. The loaded sensors were dipped into monovalent P66 (rabbit ANGPTL7-his) at a concentration of 200 nM for 5 min of association, followed by 10 min of dissociation. […] Responses (nm) at the end of association were also determined (Table 6).

[2] = target: T2, muANGPTL7-his (R&D Systems) (mouse, UniProt Q8R1Q3 22-337, limits assumed); assay: BLI Octet HTX; IgG on AHC sensor; muANGPTL7-his at 200 nM; 1:1 fit
T2 construct: Bought protein; also called mouse ANGPTL7 protein
T2 sequence (looked up): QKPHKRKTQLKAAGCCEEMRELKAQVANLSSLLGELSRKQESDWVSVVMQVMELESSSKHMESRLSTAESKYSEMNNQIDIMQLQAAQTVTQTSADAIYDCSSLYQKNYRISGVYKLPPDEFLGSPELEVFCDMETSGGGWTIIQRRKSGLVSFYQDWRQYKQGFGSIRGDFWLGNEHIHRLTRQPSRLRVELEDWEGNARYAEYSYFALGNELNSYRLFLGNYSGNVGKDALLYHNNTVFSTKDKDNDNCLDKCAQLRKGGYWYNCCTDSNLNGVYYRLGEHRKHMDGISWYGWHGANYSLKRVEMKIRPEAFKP
Method: as §1, with “(KD)” for “(KA)”, “mouse” for “rabbit”, “1×PBS,” for “Rx PBS,”, “[…].” for “min.”, “muANGPTL7-his (R&D Systems)” for “P66 (rabbit ANGPTL7-his)”, “5).” for “6).”

P66 (rabbit ANGPTL7-his) [3] = target: T1, P66 (rabbit ANGPTL7-his); assay: BLI Octet HTX; IgG on AHC sensor; P66 at 200 nM
Method: as §1

[4] = target: T3, P60 (huANGPTL7-Fibrinogen-his) (human, UniProt O43827 129-343); assay: BLI Octet HTX; IgG on AHC sensor; P60 at 200 nM; 1:1 fit
T3 construct: also called human ANGPTL7 fibrinogen domain; not shown: C-terminal short linker and His tag
T3 sequence: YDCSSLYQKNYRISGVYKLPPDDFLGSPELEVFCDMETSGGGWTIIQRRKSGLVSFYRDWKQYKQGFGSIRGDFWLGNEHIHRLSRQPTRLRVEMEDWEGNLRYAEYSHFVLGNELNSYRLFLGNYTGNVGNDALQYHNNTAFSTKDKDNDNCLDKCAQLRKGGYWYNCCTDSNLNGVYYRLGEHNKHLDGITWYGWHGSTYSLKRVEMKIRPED
Method: (§2) ANGPTL7 Antibody Kinetics. Experiments were conducted to determine the reactivity and dissociation constants (KD) of anti-ANGPTL7 antibodies with the human fibrinogen domain of the ANGPTL7 protein. Binding experiments were performed on Octet HTX (ForteBio) in 1×PBS, pH 7.4, 0.1 mg/ml BSA, 0.05% Sodium Azide, and 0.02 Tween 20. Antibodies at a concentration of 50 nM were loaded on pre-hydrated AHC biosensors for 5 min. The loaded sensors were dipped into monovalent P60 (huANGPTL7-Fibrinogen-his) at a concentration of 200 nM for 5 min association, followed by 10 min dissociation. […] Responses (nm) at the end of association were also determined (Table 2).

[5] = target: T4, Pext-01 (huANGTPL7-FLAG multimer) (human, UniProt O43827 27-346); assay: BLI Octet HTX; IgG on AHC sensor; Pext-01 at 100 nM; 1:1 fit; apparent KD
T4 construct: also called PExt-1; human wild type ANGPTL7 multimer; not shown: FLAG tag
T4 sequence: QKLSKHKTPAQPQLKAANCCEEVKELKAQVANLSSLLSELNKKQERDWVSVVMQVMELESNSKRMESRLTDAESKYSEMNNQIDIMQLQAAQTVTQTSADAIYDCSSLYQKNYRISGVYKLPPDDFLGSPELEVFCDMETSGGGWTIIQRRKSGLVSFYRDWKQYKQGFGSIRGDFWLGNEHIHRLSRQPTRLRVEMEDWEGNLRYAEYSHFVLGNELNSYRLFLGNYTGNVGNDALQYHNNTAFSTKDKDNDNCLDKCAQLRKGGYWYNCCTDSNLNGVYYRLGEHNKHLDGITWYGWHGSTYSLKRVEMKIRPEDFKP
Method: Experiments were also conducted to determine the reactivity and dissociation constants (KD) of anti-ANGPTL7 antibodies with the human ANGPTL7 multimer protein. Binding experiments were performed on Octet HTX (ForteBio) in 1×PBS, pH 7.4, 0.1 mg/ml BSA, 0.05% Sodium Azide, and 0.02% Tween 20. Antibodies at a concentration of 50 nM were loaded on pre-hydrated AHC biosensors for 5 mi. The loaded sensors were dipped into Pext-01 (huANGTPL7-FLAG) at a concentration of 100 nM for 5 min of association, followed by 10 min of dissociation. […] Responses (nm) at the end of association were also determined (Table 7).

[6] = target: T2, muANGPTL7-his (R&D Systems); assay: BLI Octet HTX; IgG on AHC sensor; muANGPTL7-his at 200 nM
Method: as §1, with “(KD)” for “(KA)”, “mouse” for “rabbit”, “1×PBS,” for “Rx PBS,”, “[…].” for “min.”, “muANGPTL7-his (R&D Systems)” for “P66 (rabbit ANGPTL7-his)”, “5).” for “6).”

P62 (huANGPTL7-his) = target: T5, P62 (huANGPTL7-his) (human, UniProt O43827 27-346); assay: BLI Octet HTX; IgG on AHC sensor; P62 0.343-250 nM; global 1:1 fit
T5 construct: not shown: C-terminal short linker and His tag
T5 chain: T4 sequence with L33P, L58P
Method: Experiments were also conducted to determine the reactivity and dissociation constants (KD) of anti-ANGPTL7 antibodies with the human ANGPTL7-his protein. Binding experiments were performed on Octet HTX (ForteBio) in 1×PBS, pH 7.4, 0.1 mg/mi BSA, 0.05% Sodium Azide, and 0.02% Tween 20. To measure monovalent binding kinetics, antibodies at a concentration of 50 nM were loaded on pre-hydrated AHC biosensors for 5 min. The loaded sensors were dipped into monovalent P62 (huANGPTL7-his) at a range of concentration from 0.343-250 nM (a serial 3-fold dilution) for 5 min association, followed by 10 min dissociation.

[7] = target: T3, P60 (huANGPTL7-Fibrinogen-his); assay: BLI Octet HTX; IgG on AHC sensor; P60 at 200 nM
Method: as §2

B1: ATX-P-429 (antibody, human IgG1, kappa, N297A, V domains shown)
VH: QVQLVQSGAEVKKPGASVKVSCKASGYTFSSYGISWVRQAPGQGLEWMGWISAYNGNTNYAQNLRGRVAMTTDTSTTTAYMELRSLRSDDTAVYYCARVSLVWFGELPRGFDYWGQGTLVTVSS
VL: not shown
notes: Full chains (VH + hIgG1-Agly-Fc)
- Response (P66 (rabbit ANGPTL7-his) [1]): 0.04 nm
- Response [2]: 0 nm
- binding result (P66 (rabbit ANGPTL7-his) [3]): no binding (tested: 200 nM)
- Kd [4]: 75.3 nM
- Response [4]: 0.52 nm
- Response [5]: 0.58 nm
- binding result [6]: no binding (tested: 200 nM)

B2: ATX-P-447 (antibody, human IgG1, kappa, N297A, V domains shown)
VH: EVQLVESGGGLVQPGGSLRLSCAASGFTISDYDMHWVRQTTGKGLEWVSGIDPDGDTYYPGSLKGRFTISRENAKNSLYLQMNSLRAGDTAVYYCTRGEDSSSSEDAFDIWGQGTMVTVSS
VL: not shown
notes: as for B1
- binding result (P62 (huANGPTL7-his)): binds
- Kd (P66 (rabbit ANGPTL7-his) [1]): 3.33 nM
- Response (P66 (rabbit ANGPTL7-his) [1]): 0.65 nm
- Response [2]: 0.12 nm
- binding result [7]: no binding (tested: 200 nM)
- Response [4]: 0.08 nm
- Response [5]: 0.91 nm
- binding result [6]: no binding (tested: 200 nM)

B3: ATX-P-444 (antibody, human IgG1, kappa, N297A, V domains shown)
VH: B2 VH with I29L, D31V, T40V, T41S, L63V, A87V, T96L, D100E, S102N, A107G
VL: not shown
notes: as for B1
- Response [2]: 0.01 nm
- binding result [7]: no binding (tested: 200 nM)
- Response [4]: 0.14 nm
- Response [5]: 0.7 nm
- binding result [6]: no binding (tested: 200 nM)

B4: ATX-P-446 (antibody, human IgG1, kappa, N297A, V domains shown)
VH: B2 VH with I29L, D31S, T40V, T41I, L63V, N73D, S101N
VL: not shown
notes: as for B1
- Kd (P66 (rabbit ANGPTL7-his) [1]): 3.19 nM
- Response (P66 (rabbit ANGPTL7-his) [1]): 0.41 nm
- Response [2]: 0.05 nm
- binding result [7]: no binding (tested: 200 nM)
- Response [4]: 0.09 nm
- Response [5]: 0.75 nm
- binding result [6]: no binding (tested: 200 nM)

B5: ATX-P-435 (antibody, human IgG1, kappa, N297A, V domains shown)
VH: QLQLQESGPGLVKPSETLSLTCTVSGGSISSSSSYWGWIRQPPGKGLEWIGSIYYSGSTYSNPSLKSRVTISVDTSKNQFSLKLSSVTAADTAVYYCARQYISGTEYFQYWGQGTLVTVSS
VL: EIVLTQSPATLSLSPGERATLSCRASQSVSNYLAWYQQKPGQAPRLLIYDASNRATGIPARFSGSGSGTDFTLTISSLEPEDFAVYYCQQRSNWPSFGQGTRLEIKR
notes: as for B1
- Response (P66 (rabbit ANGPTL7-his) [1]): 0.01 nm
- Response [2]: 0.01 nm
- binding result (P66 (rabbit ANGPTL7-his) [3]): no binding (tested: 200 nM)
- Kd [4]: 77 nM
- Response [4]: 0.45 nm
- Response [5]: 0.45 nm
- binding result [6]: no binding (tested: 200 nM)

B6: ATX-P-433 (antibody, IgG1, V domains shown)
VH: EVQLVESGGGLVQPGRSLRLSCAASGFTFDDFAMHWVRQGPGKGLEWVSGIGWNSGSIGYADSVKGRFTISRDNAKNSLYLQMNSLRAEDTALYYCAKAPDYGDYYFDYWGQGTLVTVSS
VL: DIQMTQSPSSLSASVGDRVTITCRASQSISIYLNWYQQKPGTAPKLLIYAASSLQSGVPSRFSGSGSGTDFTLTISSLQPEDFAAYYCQQSYTTPLTFGGGTKVEIKR
notes: as for B1
- Kd (P62 (huANGPTL7-his)): 1.3 nM
- koff (P62 (huANGPTL7-his)): 0.00056 s⁻¹
- kon (P62 (huANGPTL7-his)): 431000 M⁻¹ s⁻¹
- Kd (P66 (rabbit ANGPTL7-his) [1]): 7.02 nM
- Response (P66 (rabbit ANGPTL7-his) [1]): 0.9 nm
- koff (P66 (rabbit ANGPTL7-his) [1]): 0.000727 s⁻¹
- kon (P66 (rabbit ANGPTL7-his) [1]): 104000 M⁻¹ s⁻¹
- Kd [4]: 10.9 nM
- Response [4]: 0.66 nm
- koff [4]: 0.00243 s⁻¹
- kon [4]: 223000 M⁻¹ s⁻¹
- Response [5]: 0.72 nm

B7: ATX-P-438 (antibody, human IgG1, kappa, N297A, V domains shown)
VH: QVQLVESGGGVVQPGRSLRLSCAASGFTFSSYGMHWVRQAPGKGLEWVAIISYDGNNKYYADSVKGRFTISRDNSKNTLYLQMNSLRDEDTAVYYCAKERGYSSSSGYYYYYMDVWGKGTTVTVSS
VL: EIVLTQSPGTLSLSPGERATLSCRASQSVSRSYLAWYQQKPGQAPRLLIIGASTRATGIPDRFSGSGSGTDFTLTISRLEPEDFAVYYCQQGQVIPPTFGQGTKVEIKR
notes: as for B1
- Kd (P66 (rabbit ANGPTL7-his) [1]): 7.16 nM
- Response (P66 (rabbit ANGPTL7-his) [1]): 0.42 nm
- Response [2]: 0.01 nm
- binding result [7]: no binding (tested: 200 nM)
- Response [4]: 0.08 nm
- Kd [5]: 65.3 nM
- Response [5]: 0.6 nm
- binding result [6]: no binding (tested: 200 nM)
